From paper PMC12525094

Legend:
[1] = target: Class 1 phytoglobin from Beta vulgaris (BvPgb 1.2), cysteine-to-alanine variant C86A (Beta vulgaris (sugar beet)); assay: other fluorescence titration; isothermal spectral shift (SpS), Monolith X, dual emission ratio 670/650 nm; NHS-dye-labelled Pgb mixed with a sixteen-step dilution of GAPDH (highest 32 µM), equilibrated 15 min, in capillaries; PBS pH 7.4 with 0.05% Tween20; 25 °C
[2] = target: Class 1 phytoglobin from Beta vulgaris (BvPgb 1.2), recombinant wild type (Beta vulgaris (sugar beet)); assay: as above
[3] = system: BvPgb 1.2 C86A (Beta vulgaris); assay: isothermal spectral shift (Monolith X); conditions: PBS pH 7.4, 0.05% Tween20, 25 °C, 15 min equilibration, 16-step DNA dilution, top DNA stock 673 nM (i.e. 2.5 ng pET19b/µL; the two figures are …)
[4] = system: BvPgb 1.2 rWT (class 1 phytoglobin) (Beta vulgaris); assay: isothermal spectral shift (Monolith X); conditions: PBS pH 7.4, 0.05% Tween20, 25 °C, 15 min equilibration, 16-step DNA dilution, top DNA stock 673 nM (i.e. 2.5 ng pET19b/µL; the two figures are …)
[5] = closed (hexacoordinate) phase of biphasic fit
[6] = open (pentacoordinate) phase of biphasic fit

Row | Substance | Kd [1] [nM] | Kd [2] [nM] | Kd [3, 5] [nM] | Kd [3, 6] [nM] | Kd [4, 5] [nM] | Kd [4, 6] [nM]
1 | Glyceraldehyde-3-phosphate dehydrogenase (GAPDH), human (from UniProt P04406 1-335) (enzyme) | 120 | 260 |  |  |  | 
2 | pET19b plasmid DNA |  |  | 0.23 | 50 | 0.1 | 120
